Test results reported in the RNAGym collection of RNA variant scans (doi:10.7554/elife.90254).

B1: LINE1-mini (parent)
chain: GGCAGAGCUCAACACAGCGUGGCAAAGUGGCUGUGGCUAGACUGCC

Variants of: B1
Test: self-cleavage, relative activity (ratio to wild type); higher = more cleavage; in vitro, sequencing; the parent is a self-cleaving ribozyme

| Variant | self-cleavage |
| --- | --- |
| A26C U43A | 0.07 |
| A26C U43C | 0.25 |
| A26C U43G | 0.12 |
| A26C A39C | 0.09 |
| A26C A39G | 0.05 |
| A26C A39U | 0.43 |
| A26U A39G | 0.22 |
| A26U A39U | 2.46 |
| A26U A39C | 0.25 |
| A26G U43G | 0.03 |
| A26G U43C | 0.05 |
| A26G U43A | 0.07 |
| A26G C42G | 0.05 |
| A26G C42U | 0.13 |
| A26G C42A | 0.08 |
| A26C C42A | 0.16 |
| A26C C42G | 0.04 |
| A26C C42U | 0.48 |
| A26C G36A | 0.14 |
| A26C G36U | 0.07 |
| A26C G36C | 0.11 |
| A26C G29C | 0.37 |
| A26C G29U | 0.54 |
| A26U G29A | 1.35 |

| Variant | self-cleavage |
| --- | --- |
| A26U G29U | 1.61 |
| A26U G29C | 0.35 |
| A26C U32C | 0.24 |
| A26C U32A | 0.14 |
| A26C U32G | 0.13 |
| A26G U32G | 0.18 |
| A26G U32A | 0.08 |
| A26G U32C | 0.18 |
| A26C G40U | 0.09 |
| A26C G40A | 0.12 |
| A26C G40C | 0.07 |
| A26C U38G | 0.03 |
| A26C U38C | 0.83 |
| A26C U38A | 1.02 |
| A26G U34C | 0.08 |
| A26G U34G | 0.03 |
| A26G U34A | 0.04 |
| A26C G35C | 0.16 |
| A26C G35U | 0.09 |
| A26C G35A | 0.18 |
| A26C G33C | 0.07 |
| A26C G33A | 0.17 |
| A26C G33U | 0.08 |
| A26C C37G | 0.02 |

| Variant | self-cleavage |
| --- | --- |
| A26C C37A | 0.05 |
| A26C C37U | 0.07 |
| A26G C46U | 0.58 |
| A26G C46G | 1.53 |
| A26G C46A | 1.08 |
| A26G G44C | 0.28 |
| A26G G44A | 0.31 |
| A26G G44U | 0.3 |
| A26U G33C | 0.06 |
| A26U G33A | 0.09 |
| A26U G33U | 0.08 |
| A26U C37G | 0.05 |
| A26U C37A | 0.08 |
| A26U C37U | 0.08 |
| A26G U38A | 0.52 |
| A26G U38G | 0.01 |
| A26G U38C | 0.44 |
| A26C G27A | 0.57 |
| A26C G27C | 0.9 |
| A26C G27U | 0.46 |
| A26G C37A | 0.02 |
| A26G C37U | 0.04 |
| A26G C37G | 0.03 |
| A26G | 0.87 |

| Variant | self-cleavage |
| --- | --- |
| A26U | 1.27 |
| A26C | 0.9 |
| A26C G44A | 0.87 |
| A26C G44C | 0.35 |
| A26C G44U | 0.28 |
| A26G G35U | 0.16 |
| A26G G35A | 0.1 |
| A26G G35C | 0.1 |
| A26C C31A | 0.38 |
| A26C C31U | 0.17 |
| A26C C31G | 0.06 |
| A26U G36U | 0.09 |
| A26U G36A | 0.23 |
| A26U G36C | 0.13 |
| A26G G29C | 0.89 |
| A26G G29U | 1.23 |
| A26G G29A | 0.36 |
| A26G G36A | 0.28 |
| A26G G36U | 0.12 |
| A26G G36C | 0.07 |
| A26U A41G | 0.37 |
| A26U A41C | 0.07 |
| A26U A41U | 0.75 |
| A26U G40C | 0.06 |

| Variant | self-cleavage |
| --- | --- |
| A26U G40A | 0.17 |
| A26U G40U | 0.13 |
| A25U U43G | 0 |
| A25U U43C | 0.1 |
| A25U U43A | 0.21 |
| A26C C45G | 0.8 |
| A26C C45U | 1.17 |
| A26C C45A | 0.8 |
| A26G C45A | 1.06 |
| A26G C45G | 0.31 |
| A26G C45U | 0.77 |
| A26G G27A | 0.99 |
| A26G G27U | 0.94 |
| A26G G27C | 1.15 |
| A26C U34A | 0.1 |
| A26C U34G | 0.32 |
| A26C U34C | 0.33 |
| A26U C45G | 0.64 |
| A26U C45A | 1.95 |
| A26U C45U | 0.83 |
| A26U C42U | 0.08 |
| A26U C42A | 0.29 |
| A26U C42G | 0.1 |
| A26U C31A | 0.14 |

| Variant | self-cleavage |
| --- | --- |
| A26U C31G | 0.08 |
| A26U C31U | 0.18 |
| A26U G27A | 0.8 |
| A26U G27U | 1.41 |
| A26U G27C | 0.66 |
| A26U G30U | 1.25 |
| A26U G30A | 1.56 |
| A26U G30C | 1.31 |
| A26C C46U | 1.46 |
| A26C C46A | 0.83 |
| A26C C46G | 0.75 |
| A26G G40U | 0.15 |
| A26G G40C | 0.08 |
| A26G G40A | 0.14 |
| A26G G33A | 0.09 |
| A26G G33C | 0.08 |
| A26G G33U | 0.07 |
| A26U G35C | 0.09 |
| A26U G35A | 0.24 |
| A26U G35U | 0.16 |
| A26C G30A | 1.12 |
| A26C G30U | 1.45 |
| A26G A39U | 0.5 |
| A26G A39C | 0.18 |

| Variant | self-cleavage |
| --- | --- |
| A26G A39G | 0.05 |
| A26U C46U | 2.38 |
| A26U C46A | 0.77 |
| A26U C46G | 1.18 |
| A26C A41G | 0.23 |
| A26C A41C | 0.04 |
| A26C A41U | 0.72 |
| A26G U28A | 1.25 |
| A26G U28C | 1.18 |
| A26G U28G | 0.37 |
| A26G C31U | 0.15 |
| A26G C31A | 0.11 |
| A26G C31G | 0.06 |
| A26C U28A | 0.53 |
| A26C U28C | 0.4 |
| A26C U28G | 0.66 |
| A25U U38G | 0.03 |
| A26G G30C | 1.27 |
| A26G G30A | 2.6 |
| A26G G30U | 1.61 |
| A26G A41U | 0.54 |
| A26G A41G | 0.2 |
| A26G A41C | 0.12 |
